Test results reported in the supplement of paper PMC11246515.
± gives the standard deviation of the averaged measurements.

Assay: total protein half-life in vivo (active degradation + dilution); higher = more stable protein
[1] = E. coli NCM3722 delta-clpP delta-lon delta-hslV, growth: N-lim chemostat, doubling time 6 h
[2] = E. coli NCM3722 delta-hslV, growth: N-lim chemostat, doubling time 6 h
[3] = E. coli NCM3722 delta-lon, growth: N-lim chemostat, doubling time 6 h
[4] = E. coli NCM3722 delta-smpB, growth: N-lim chemostat, doubling time 6 h
[5] = wild type E. coli NCM3722, growth: C-lim chemostat, doubling time 3 h
[6] = wild type E. coli NCM3722, growth: C-lim chemostat, doubling time 12 h
[7] = wild type E. coli NCM3722, growth: N-lim chemostat, doubling time 6 h
[8] = wild type E. coli NCM3722, growth: N-lim chemostat, doubling time 12 h
[9] = wild type E. coli NCM3722, growth: P-lim chemostat, doubling time 6 h
[10] = E. coli NCM3722 delta-clpP, growth: N-lim chemostat, doubling time 6 h
[11] = wild type E. coli NCM3722, growth: C-lim chemostat, doubling time 6 h
[12] = wild type E. coli NCM3722, growth: P-lim chemostat, doubling time 12 h

Sequence | total protein half-life in vivo [1] [h] | total protein half-life in vivo [2] [h] | total protein half-life in vivo [3] [h] | total protein half-life in vivo [4] [h] | total protein half-life in vivo [5] [h] | total protein half-life in vivo [6] [h] | total protein half-life in vivo [7] [h] | total protein half-life in vivo [8] [h] | total protein half-life in vivo [9] [h] | total protein half-life in vivo [10] [h] | total protein half-life in vivo [11] [h] | total protein half-life in vivo [12] [h]
MSLPHCPKCNSEYTYEDNGMYICPECAYEWNDAEPAQESDELIVKDANGNLLADGDSVTIIKDLKVKGSSSMLKIGTKVKNIRLVEGDHNIDCKIDGFGPMKLKSEFVKKN [P0AFJ1] | 5.52 ± 0.25 | 6.14 ± 1.1 | 5.91 ± 1 | 4.71 ± 0.15 | 2.53 ± 0.093 | 10.2 ± 0.45 | 4.88 | 10.2 ± 0.21 | 5.38 ± 0.21 |  |  | 
MSTTWFVGADWLAEHIDDPEIQIIDARMASPGQEDRNVAQEYLNGHIPGAVFFDIEALSDHTSPLPHMLPRPETFAVAMRELGVNQDKHLIVYDEGNLFSAPRAWWMLRTFGVEKVSILGGGLAGWQRDDLLLEEGAVELPEGEFNAAFNPEAVVKVTDVLLASHENTAQIIDARPAARFNAEVDEPRPGLRRGHIPGALNVPWTELVREGELKTTDELDAIFFGRGVSYDKPIIVSCGSGVTAAVVLLALATLDVPNVKLYDGAWSEWGARADLPVEPVK | 4.69 ± 0.49 | 4.63 ± 0.66 | 6.38 ± 2 | 3.69 ± 0.23 | 3.13 ± 0.094 | 9.46 ± 0.71 | 4.51 ± 0.59 | 6.87 ± 0.19 | 5.58 ± 0.12 | 3.98 ± 0.5 | 5.74 ± 0.92 | 11 ± 0.56
MRLLNRLNQYQRLWQPSAGKPQTVTVSELAERCFCSERHVRTLLRQAQEAGWLEWQAQSGRGKRGQLRFLVTPESLRNAMMEQALETGKQQDVLELAQLAPGELRTLLQPFMGGQWQNDTPTLRIPYYRPLEPLQPGFLPGRAEQHLAGQIFSGLTRFDNNTQRPIGDLAHHWETSTDGLRWDFYLRSTLHWHNGDAVKASHLHQRLLMLLQLPALDQLFISVKRIEVTHPQCLTFFLHRPDYWLAHRLASYCSHLAHPQFPLIGTGPFRLTQFTAELVRLESHDYYHLRHPLLKAVEYWITPPLFEKDLGTSCRHPVQITIGKPEELQRVSQVSSGISLGFCYLTLRKSPRLSLWQARKVISIIHQSGLLQTLEVGENLITASHALLPGWTIPHWQVPDEVKLPKTLTLVYHLPIELHTMAERLQATLAAEGCELTIIFHNAKNWDDTTLQAHADLMMGDRLIGEAPEYTLEQWLRCDPLWPHVFDAPAYAHLQSTLDAVQIMPDEENRFNALKAVFSQLMTDATLTPLFNYHYRISAPPGVNGVRLTPRGWFEFTEAWLPAPSQ | 5.67 |  |  |  | 1.85 ± 0.39 | 4.716 ± 0.0097 |  |  |  |  | 3 ± 0.03 | 
MRNKPFYLLCAFLWLAVSHALAADSTITIRGYVRDNGCSVAAESTNFTVDLMENAAKQFNNIGATTPVVPFRILLSPCGNAVSAVKVGFTGVADSHNANLLALENTVSAASGLGIQLLNEQQNQIPLNAPSSALSWTTLTPGKPNTLNFYARLMATQVPVTAGHINATATFTLEYQ |  |  |  | 5.58 ± 0.25 | 2.61 | 15.7 | > 8 | 13.4 | 5.52 |  | 5.55 | 9.2
MSHQHTTQTSGQGMLERVFKLREHGTTARTEVIAGFTTFLTMVYIVFVNPQILGVAGMDTSAVFVTTCLIAAFGSIMMGLFANLPVALAPAMGLNAFFAFVVVQAMGLPWQVGMGAIFWGAIGLLLLTIFRVRYWMIANIPVSLRVGITSGIGLFIGMMGLKNAGVIVANPETLVSIGNLTSHSVLLGILGFFIIAILASRNIHAAVLVSIVVTTLLGWMLGDVHYNGIVSAPPSVMTVVGHVDLAGSFNLGLAGVIFSFMLVNLFDSSGTLIGVTDKAGLADEKGKFPRMKQALYVDSISSVTGSFIGTSSVTAYIESSSGVSVGGRTGLTAVVVGLLFLLVIFLSPLAGMVPGYAAAGALIYVGVLMTSSLARVNWQDLTESVPAFITAVMMPFSFSITEGIALGFISYCVMKIGTGRLRDLSPCVIIVALLFILKIVFIDAH | 6.67 ± 0.81 | 5.86 ± 0.14 | 5.93 | 5.32 ± 0.85 |  | 12.7 ± 2.2 | 6.02 ± 0.079 |  | 5.99 ± 0.52 | 6.107 ± 0.041 | 5.56 ± 0.18 | 11.2 ± 0.99
MMVTVVSNYCQLSQTQLSQTFAEKFTVTEELLQSLKKTALSGDEESIELLHNIALGYDKFGKEAEDILYHIVRTPTNETLSIIRLIKNACLKLYNLAHIATNSPLKSHDSDDLLFKKLFSPSKLMTIIGDEIPLISEKQSLSKVLLNDENNELSDGTNFWDKNRQLTTDEIACYLQKIAANAKNTQVNYPTGLYVPYSTRTHLEDALNENIKSDPSWPNEVQLFPINTGGHWILVSLQKIVNKKNNKLQIKCVIFNSLRALGYDKENSLKRVINSFNSELMGEMSNNNIKVHLNEPEIIFLHADLQQYLSQSCGAFVCMAAQEVIEQRESNSDSAPYTLLKNHADRFKKYSAEEQYEIDFQHRLANRNCYLDKYGDANINHYYRNLEIKHSQPKNRASGKRVS | 6.83 |  |  |  |  |  |  |  |  |  |  | 
MERIVVTLGERSYPITIASGLFNEPASFLPLKSGEQVMLVTNETLAPLYLDKVRGVLEQAGVNVDSVILPDGEQYKSLAVLDTVFTALLQKPHGRDTTLVALGGGVVGDLTGFAAASYQRGVRFIQVPTTLLSQVDSSVGGKTAVNHPLGKNMIGAFYQPASVVVDLDCLKTLPPRELASGLAEVIKYGIILDGAFFNWLEENLDALLRLDGPAMAYCIRRCCELKAEVVAADERETGLRALLNLGHTFGHAIEAEMGYGNWLHGEAVAAGMVMAARTSERLGQFSSAETQRIITLLKRAGLPVNGPREMSAQAYLPHMLRDKKVLAGEMRLILPLAIGKSEVRSGVSHELVLNAIADCQSA | 4.67 ± 1.3 | 3.46 ± 0.2 | 3.72 ± 0.1 | 3.57 ± 0.046 | 2.77 ± 0.15 | 8.87 ± 0.33 | 3.49 ± 0.091 | 5.447 ± 0.037 | 5.77 ± 0.57 | 3.73 ± 0.43 | 5.16 ± 0.2 | 10.6 ± 0.48
MTNVLIVEDEQAIRRFLRTALEGDGMRVFEAETLQRGLLEAATRKPDLIILDLGLPDGDGIEFIRDLRQWSAVPVIVLSARSEESDKIAALDAGADDYLSKPFGIGELQARLRVALRRHSATTAPDPLVKFSDVTVDLAARVIHRGEEEVHLTPIEFRLLAVLLNNAGKVLTQRQLLNQVWGPNAVEHSHYLRIYMGHLRQKLEQDPARPRHFITETGIGYRFML | 5.392 ± 0.013 | 5.29 ± 0.32 | 4.99 ± 0.47 | 4.92 ± 0.36 | 3.04 ± 0.1 | 10.1 ± 0.52 | 5.05 ± 0.32 | 9.806 ± 0.011 | 5.79 ± 0.17 | 5.1 ± 0.7 | 5.35 ± 0.76 | 10.1 ± 2
